Data on ten molecules can be found in patent US20080057063A1 (published 2008).

To fix the notation:
B1: sc 298 (antibody, V domains shown)
VH: QVQLVESGGGVVQPGRSLRLSCAASGFTFSSYGMHWVRQAPGKGLEWVAVIWYGGSNKYYADSVKGRFTISRDNSKNTLYLQMNSLRAEDTAVYYCARDLAARRGDYYYYGMDVWGQGTTVTVSS
VL: SSELTQDPVVSVALGQTVRITCQGDSLRSYYLSWYQQKPGQAPVLVIYGKNNRPSGIPDRFSGSNSGNTASLTITGAQAEDEADYYCNSRDSSGNHLFGGGTKLTVL
B2: sc 254 (antibody, V domains shown)
VH: QVQLQESGPGLVKPSQTLSLTCTVSGGSISSGGYYWSWIRQHPGKGLEWIGYIYYSGSTYYNPSLKSRVTISVDTSKNQFSLKLSSVTAADTAMYYCARYRGPAAGRGDFYYFGMDVWGQGTTVTVSS
VL: DIVMTQTPLSLSVTPGQPASIFCKSSQSLLNSDGKTYLCWYLQKPGQPPQLLIYEVSNRFSGVPDRFSGSGSGTDFTLKISRVEAEDVGVYYCMQGIQLPWAFFGQGTKVEIK
B3: sc 320 (antibody, V domains shown)
VH: EVQLVESGGGLVKPGGSLRLSCAASGYTFTNYIMHWVRQAPGKGLEWVSSISISSSYIYYADSVKGRFTISRDNAKNSLYLQMNSLRAEDTAVYYCARDPVPLERRDYYYGMDVWGQGTTVTVSS
VL: QSVLTQPPSMSAAPGQKVTISCSGSSSNIGNNYVSWYQQLPGTAPKLLIYDNNKRPSGIPDRFSGSKSGTSATLGITGLQTGDEADYYCGTWDSSLSAGVFGGGTKLTVL
B4: sc 97 (antibody, V domains shown)
VH: EVQLVQSGAEVKKPGESLKISCKGSGYSFTSYWIGWVRQMPGKGLEWMGIIYPGDSDTRYSPSFQGQVILSADKSISTAYLQWSSLKASDTAMYYCARHDESSGYYYVFDIWGQGTMVTVSS
VL: SYELTQPPSVSVSPGQTARITCSGDALPKKYAYWYQQKSGQAPVLVIYEDIKRPSGIPERFSGSSSGTMATLTISGAQVEDEADYYCYSTDSSGNHWVFFGGGTKLTVL
notes: also called sc 097
B5: sc 58 (antibody, V domains shown)
VH: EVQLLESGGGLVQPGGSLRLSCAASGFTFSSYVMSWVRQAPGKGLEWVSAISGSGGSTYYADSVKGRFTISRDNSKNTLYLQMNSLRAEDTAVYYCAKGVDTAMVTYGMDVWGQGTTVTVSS
VL: SYELTQPPSVSVSPGQTARITCSGDALPKKYAYWYQQKSGQAPVLVIYDDSKRPSGIPERFSGSSSGTMATLTISGAQVEDEADYYCYSTDSSGNHRVFGGGTKLTVL
notes: also called sc 058
B6: sc 277 (antibody, V domains shown)
VH: EVQLVQSGAEVKKPGESLKISCKGSGYSFPSYWIGWVRQMPGKGLEWMGIIYPGDSDTRYSPSFQGQVTISADKSISTAYLQWSSLKASDTAMYYCARHPMEDGMDVWGQGTTVTVSS
VL: SYELTQPPSVSVSPGQTARITCSGDALPKKYAFWYQQKSGQAPVLVIYDDNKRPSGIPERFSGSSSGTMATLTITGAQVEDEADYYCYSTDSSGHHVFGGGTKLTVL
B7: sc 161 (antibody, V domains shown)
VH: EVQLVQSGAEVKKPGESLKISCKGSGYSFTSYWIGWVRQMPGKGLEWMGIIYPGDSDTRYSPSFQGQVTISADKSISTAYLQWSSLKASDTAMYYCARHGIAAAGFYYYYMDVWGQGTTVTVSS
VL: EIVLTQSPDTLSLSPGERASLSCRASQNVNRNYLVWYQQKPGQAPRLLIYGTSNRATGIPDRFSGSGSGTDFTLTISRLEPEDFAVYYCQQCGSLPFTFGPGTKVDIKR
B8: sc 264 (antibody, V domains shown)
VH: QVQLQESGPGLVKPSQTLSLTCTVSGGSISSGGYYWSWIRQHPGKGLEWIGYIYYSGRTYNNPSLKSRVTISVDTSKNQFSLKLSSVTAADTAVYYCARVATGRGDYHFYAMDVWGQGTTVTVSS
VL: SYELTQPSSVSVSPGQTARITCSGDVLAKKSARWFHQKPGQAPVLVIYKDSERPSGIPERFSGSSSGTTVTLTISGAQVEDEAAYYCYSAADNNLVFGGGTKLTVL
notes: RGD in heavy chain CDR3
B9: sc 374 (antibody, V domains shown)
VH: B1 VH with G54D, D99T, L100E, A101G, A102I, R103A, R104A, G105R, D106L
VL: not shown
B10: sc 49 (antibody, V domains shown)
VH: QVQLQESGPGLVKPSQTLSLTCTVAGGSIRSGDYYWSWIRQHPGKGLEWIGNIYYSGSTYYNPSLKSRITISVATSRNQFSLKLTSVTAADTAVYYCARGGAITIFGVFDYWGQGTLVTVSS
VL: not shown
notes: also called sc 049

Positions count from the first letter of the chain named.

The target of one assay is T1, soluble αVβ6 (human, UniProt P06756 31-992; P18564 22-709).
T1 construct: extracellular domain; also called soluble αVβ6 protein; soluble antigen
T1 sequence (P06756 31-992, chain 1 of 2): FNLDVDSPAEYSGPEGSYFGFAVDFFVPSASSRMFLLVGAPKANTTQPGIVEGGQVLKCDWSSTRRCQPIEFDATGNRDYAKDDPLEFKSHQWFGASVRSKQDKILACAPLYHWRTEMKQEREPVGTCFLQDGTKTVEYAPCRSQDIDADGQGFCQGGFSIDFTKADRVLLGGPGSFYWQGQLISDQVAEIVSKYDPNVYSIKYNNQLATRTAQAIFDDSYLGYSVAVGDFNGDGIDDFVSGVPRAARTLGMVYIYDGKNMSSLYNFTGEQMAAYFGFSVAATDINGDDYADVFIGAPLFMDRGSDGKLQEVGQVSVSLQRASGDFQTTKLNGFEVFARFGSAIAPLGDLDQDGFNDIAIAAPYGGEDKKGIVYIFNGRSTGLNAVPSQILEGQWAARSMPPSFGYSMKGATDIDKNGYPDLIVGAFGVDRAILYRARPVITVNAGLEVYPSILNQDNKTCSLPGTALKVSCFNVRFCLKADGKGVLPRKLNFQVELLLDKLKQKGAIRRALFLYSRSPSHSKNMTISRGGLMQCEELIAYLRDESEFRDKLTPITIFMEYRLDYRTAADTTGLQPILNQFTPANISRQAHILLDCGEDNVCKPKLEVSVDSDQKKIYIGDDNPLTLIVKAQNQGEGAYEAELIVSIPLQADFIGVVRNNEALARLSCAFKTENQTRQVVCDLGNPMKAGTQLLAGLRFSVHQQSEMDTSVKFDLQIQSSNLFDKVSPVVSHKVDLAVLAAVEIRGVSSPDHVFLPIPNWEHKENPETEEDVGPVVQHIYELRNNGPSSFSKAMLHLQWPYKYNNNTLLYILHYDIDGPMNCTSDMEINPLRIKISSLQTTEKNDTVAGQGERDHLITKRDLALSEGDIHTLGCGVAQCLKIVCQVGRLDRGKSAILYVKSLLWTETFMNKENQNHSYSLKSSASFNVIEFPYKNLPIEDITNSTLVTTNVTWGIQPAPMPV
T1 sequence (P18564 22-709, chain 2 of 2): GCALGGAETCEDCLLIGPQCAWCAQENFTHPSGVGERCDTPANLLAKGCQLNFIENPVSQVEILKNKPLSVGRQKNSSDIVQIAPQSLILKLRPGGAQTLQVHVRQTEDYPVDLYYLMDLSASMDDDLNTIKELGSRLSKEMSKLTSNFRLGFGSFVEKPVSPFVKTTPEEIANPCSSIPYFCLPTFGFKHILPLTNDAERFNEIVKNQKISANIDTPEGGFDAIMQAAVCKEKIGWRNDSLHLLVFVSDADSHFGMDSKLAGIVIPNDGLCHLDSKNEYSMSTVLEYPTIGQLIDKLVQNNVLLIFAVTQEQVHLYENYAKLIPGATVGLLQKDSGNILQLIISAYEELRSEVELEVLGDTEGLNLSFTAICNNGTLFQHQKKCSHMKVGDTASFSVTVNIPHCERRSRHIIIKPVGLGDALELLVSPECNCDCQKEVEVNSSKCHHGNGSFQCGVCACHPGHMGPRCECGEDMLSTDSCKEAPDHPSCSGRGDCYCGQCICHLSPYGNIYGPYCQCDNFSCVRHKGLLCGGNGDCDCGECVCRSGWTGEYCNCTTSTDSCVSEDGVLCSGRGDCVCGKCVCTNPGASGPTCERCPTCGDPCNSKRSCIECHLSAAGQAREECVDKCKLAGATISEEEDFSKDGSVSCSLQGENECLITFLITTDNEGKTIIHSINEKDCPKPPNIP
In words: Biacore, mAb captured on anti-human IgG, soluble αVβ6 injected, 1:1 fit. (Surface plasmon resonance follows binding to a sensor surface in real time, without labels.)
Description: The Biacore analysis was performed as follows. A high-density goat α human IgG antibody surface over two CM5 Biacore chips was prepared using routine amine coupling. Each mAb was diluted in degassed HBS-P running buffer containing 100 μg/ml BSA, 1 mM MgCl₂, and 1 mM CaCl₂ to a concentration of approximately 1 μg/mL. […] A 4-minute wash step at 50 μL/min followed to stabilize the mAb baseline.
A 10-minute dissociation followed each antigen injection. The antigen samples were prepared in the HBS-P running described above. All samples were randomly injected in triplicate with several mAb capture/buffer inject cycles interspersed for double referencing. […] A flow rate of 50 μL/min was used for all antigen injection cycles.
The data were then fit to a 1:1 interaction model with the inclusion of a term for mass transport using CLAMP.
In turn, B1 showed a Kd of 21 nM, a koff of 0.00118 s⁻¹ and an on-rate constant (kon) of 56500 M⁻¹ s⁻¹.
The molecule B2 came in with a Kd of 34.9 nM.

Another assay addresses T2, α4β1 integrin (on J6.77 cells) (UniProt P13612 34-1032; P05556 21-798, limits assumed). The experiment in a line: cell-based or functional assay.
With B3, the “Percent Inhibition (J6.77 adhesion to CS-1 peptide of fibronectin, 5 ug/ml)” value was -8%.
Regarding B4, the “Percent Inhibition (J6.77 adhesion to CS-1 peptide of fibronectin, 5 ug/ml)” value was -7%.
On the same count and under the same terms, then B1, with -7%; and B5, with -14%; and B6, with -17%.
On the same count and under the same terms, the figure for B7 is 12%.
For B2, the “Percent Inhibition (J6.77 adhesion to CS-1 peptide of fibronectin, 5 ug/ml)” value turned out to be 0%.
On the same count and under the same terms, then B8, with -8%.

Another assay deals with T3, cynomolgus αVβ6 on cells (cynomolgus, UniProt A0A2K5WCD3 31-1048; A0A2K5TZ36 22-787).
T3 construct: whole, on cells; also called macaque αVβ6; Mac AVB6
The experiment in a line: FACS, HEK-293 transfected with cynomolgus αV and β6.
Description: Cross-reactivity of the antibody-containing supernatants to macaque αVβ6 was tested on the supernatants using FACS analysis on HEK-293 cells transiently transfected with cynomolgus αV and cynomolgus β6.
HEK-293 cells were transiently transfected with cynomolgus αV and cynomolgus β6. After 48 hours, the cells were collected and resuspended in FACS buffer to reach a final concentration of approximately 50,000 cells in 100 μL.
Approximately 100,000 cells total, comprising a 50:50 mix of CFSE-labeled A375M cells and transfected 293 cells, were used in each reaction as follows. 100 μL of CFSE-labeled A375M cells and 100 μL of 293 cells were dispensed into a V-bottom plate. The cells in the plate were pelleted at 1500 rpm for 3 minutes, and then resuspended in 100 μL FACS buffer. The pelleting step was repeated, and the FACS buffer supernatant was removed. The harvested antibody-containing supernatants, or control primary antibodies were added in a volume of 50 μL and the cells were resuspended. […] The plate was incubated on ice for 45 minutes, after which 100 μL FACS buffer was added to dilute the primary antibody. The cells were then pelleted by centrifuging at 1500 rpm for 3 minutes, and the pellet was resuspended in 100 μL FACS buffer. The pelleting step was repeated, and the FACS buffer supernatant was removed. Cells were then resuspended in the appropriate secondary antibody (5 μg/ml) with 7AAD dye (10 μg/ml), and stained on ice for 7 minutes. Then 150 μL of FACS buffer was added and the cells were pelLeted at 1500 rpm for 3 minutes, after which the cells were washed in 100 μL FACS buffer, pelleted, and then resuspended in 250 μL buffer and added to FACS tubes. Samples were analyzed on a high throughput FACS machine and analyzed using Cell Quest Pro software.
As for B1, the “% Cells Shifted” value amounted to 53% and the GeoMean amounted to 63.1.
Regarding B9, the GeoMean is 61.8.
B6: the “% Cells Shifted” value amounted to 35% and the GeoMean is 33.4.
The corresponding values for B7 are 14% and 33.
Molecule B2 showed a GeoMean of 78.5.

In another assay the target is T4, human αV on parental A375M cells, which express αVβ3 and αVβ5, but not αVβ6 (human, UniProt P06756 31-1048).
T4 construct: whole, on cells; Two heterodimers (αVβ3, αVβ5) on one cell line; also called αVβ3 or αVβ5 integrins
T4 sequence (P06756 31-1048 A375M): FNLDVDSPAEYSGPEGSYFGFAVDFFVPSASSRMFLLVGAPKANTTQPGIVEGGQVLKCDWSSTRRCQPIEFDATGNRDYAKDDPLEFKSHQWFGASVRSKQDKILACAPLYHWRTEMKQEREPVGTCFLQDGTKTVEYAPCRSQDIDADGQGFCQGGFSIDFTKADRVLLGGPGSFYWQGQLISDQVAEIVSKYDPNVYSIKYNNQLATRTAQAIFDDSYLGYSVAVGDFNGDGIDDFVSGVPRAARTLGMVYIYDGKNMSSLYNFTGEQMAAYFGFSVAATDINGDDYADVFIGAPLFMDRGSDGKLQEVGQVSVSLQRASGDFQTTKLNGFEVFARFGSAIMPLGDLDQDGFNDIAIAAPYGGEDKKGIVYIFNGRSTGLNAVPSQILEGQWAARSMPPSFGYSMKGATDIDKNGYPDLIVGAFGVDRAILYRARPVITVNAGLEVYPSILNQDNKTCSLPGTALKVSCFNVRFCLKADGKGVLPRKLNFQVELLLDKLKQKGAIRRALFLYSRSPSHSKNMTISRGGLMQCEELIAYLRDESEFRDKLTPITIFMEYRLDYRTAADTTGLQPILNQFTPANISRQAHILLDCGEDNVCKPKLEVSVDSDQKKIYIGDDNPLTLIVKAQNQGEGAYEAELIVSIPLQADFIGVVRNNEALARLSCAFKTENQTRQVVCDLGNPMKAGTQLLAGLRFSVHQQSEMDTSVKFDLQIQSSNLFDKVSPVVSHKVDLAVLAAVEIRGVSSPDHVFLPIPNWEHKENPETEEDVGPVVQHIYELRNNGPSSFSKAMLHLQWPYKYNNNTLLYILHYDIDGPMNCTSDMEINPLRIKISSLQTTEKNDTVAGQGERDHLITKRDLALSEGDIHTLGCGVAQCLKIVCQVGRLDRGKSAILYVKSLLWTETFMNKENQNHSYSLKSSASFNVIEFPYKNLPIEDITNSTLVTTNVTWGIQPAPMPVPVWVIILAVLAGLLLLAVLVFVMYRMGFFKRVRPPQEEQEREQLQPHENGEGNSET
The experiment in a line: FACS, parental A375M cells (αVβ3, αVβ5).
Description: For this assay, cross-reactivity was tested on the supernatants using FACS analysis on parental A375M cells, which express αVβ3 and αVβ5, but not αVβ6.
The assays were performed as follows. […] The cells were then pelleted, the supernatant discarded, and resuspended in FACS buffer and incubated for 30 minutes at 37° C. Cells were then washed twice with FACS buffer and resuspended in a final volume of 100 μL FACS buffer per well.
Approximately 100,000 cells total, comprising a 50:50 mix of CFSE-labeled A375M cells and transfected 293 cells, were used in each reaction as follows. 100 μL of CFSE-labeled A375M cells and 100 μL of 293 cells were dispensed into a V-bottom plate. The cells in the plate were pelleted at 1500 rpm for 3 minutes, and then resuspended in 100 μL FACS buffer. The pelleting step was repeated, and the FACS buffer supernatant was removed. The harvested antibody-containing supernatants, or control primary antibodies were added in a volume of 50 μL and the cells were resuspended. […] The plate was incubated on ice for 45 minutes, after which 100 μL FACS buffer was added to dilute the primary antibody. The cells were then pelleted by centrifuging at 1500 rpm for 3 minutes, and the pellet was resuspended in 100 μL FACS buffer. The pelleting step was repeated, and the FACS buffer supernatant was removed. Cells were then resuspended in the appropriate secondary antibody (5 μg/ml) with 7AAD dye (10 μg/ml), and stained on ice for 7 minutes. Then 150 μL of FACS buffer was added and the cells were pelLeted at 1500 rpm for 3 minutes, after which the cells were washed in 100 μL FACS buffer, pelleted, and then resuspended in 250 μL buffer and added to FACS tubes.
With B10, the “% Cells Shifted” value is 20% and the GeoMean stood at 1.74.
Take B3: the “% Cells Shifted” value stood at 15% and the GeoMean was 23.2.
As to B4, the “% Cells Shifted” value amounted to 24% and the GeoMean was 1.84.
For B1, in that order: 45% and 2.14.
Regarding B9, the GeoMean is 2.14.
Consider B5, for which the “% Cells Shifted” value was found to be 18% and the GeoMean came out at 1.78.
For B6, in that order: 23% and 1.86.
As for B7, the “% Cells Shifted” value turned out to be 11% and the GeoMean amounted to 16.7.
In the case of B8, the “% Cells Shifted” value was determined as 46% and the GeoMean amounted to 2.35.

A further assay has as its target T2, α4β1 integrin (on J6.77 cells). The experiment in a line: cell-based or functional assay. The source holds these as a separate data set.
As for B8, the “Percent Inhibition (J6.77 adhesion to CS-1 peptide of fibronectin, 5 ug/ml)” value is -30%.

The target in a further assay is T5, α5β1 integrin (on K562 cells) (UniProt P08648 42-1049; P05556 21-798, limits assumed). The experiment in a line: cell-based or functional assay.
T5 sequence (P08648 42-1049 limits assumed, chain 1 of 2): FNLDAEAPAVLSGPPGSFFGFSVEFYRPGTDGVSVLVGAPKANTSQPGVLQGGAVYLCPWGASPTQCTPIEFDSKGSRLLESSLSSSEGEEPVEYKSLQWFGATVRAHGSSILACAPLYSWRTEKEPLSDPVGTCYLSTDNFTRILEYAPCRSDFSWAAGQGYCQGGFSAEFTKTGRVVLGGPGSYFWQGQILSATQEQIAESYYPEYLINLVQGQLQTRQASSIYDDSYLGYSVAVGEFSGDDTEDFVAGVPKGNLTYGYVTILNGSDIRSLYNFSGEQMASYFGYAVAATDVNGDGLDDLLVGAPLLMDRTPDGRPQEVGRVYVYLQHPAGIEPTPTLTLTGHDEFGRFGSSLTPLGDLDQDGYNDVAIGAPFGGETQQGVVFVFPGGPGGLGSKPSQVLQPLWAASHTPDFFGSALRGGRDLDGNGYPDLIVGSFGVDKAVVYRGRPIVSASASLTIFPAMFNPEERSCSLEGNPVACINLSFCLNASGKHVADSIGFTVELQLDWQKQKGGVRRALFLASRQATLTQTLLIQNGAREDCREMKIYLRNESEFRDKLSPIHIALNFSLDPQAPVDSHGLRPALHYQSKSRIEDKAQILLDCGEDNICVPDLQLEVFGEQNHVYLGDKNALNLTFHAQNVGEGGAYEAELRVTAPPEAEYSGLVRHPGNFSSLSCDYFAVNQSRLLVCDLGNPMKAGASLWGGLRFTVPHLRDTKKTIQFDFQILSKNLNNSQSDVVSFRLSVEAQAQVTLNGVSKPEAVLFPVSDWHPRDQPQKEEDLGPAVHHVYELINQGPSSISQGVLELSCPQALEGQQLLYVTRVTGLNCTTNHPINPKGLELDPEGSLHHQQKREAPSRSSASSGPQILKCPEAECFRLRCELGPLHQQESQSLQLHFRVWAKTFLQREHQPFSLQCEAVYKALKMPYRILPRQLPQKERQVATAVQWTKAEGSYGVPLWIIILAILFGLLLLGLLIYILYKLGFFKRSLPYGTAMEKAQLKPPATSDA
T5 sequence (P05556 21-798 limits assumed, chain 2 of 2): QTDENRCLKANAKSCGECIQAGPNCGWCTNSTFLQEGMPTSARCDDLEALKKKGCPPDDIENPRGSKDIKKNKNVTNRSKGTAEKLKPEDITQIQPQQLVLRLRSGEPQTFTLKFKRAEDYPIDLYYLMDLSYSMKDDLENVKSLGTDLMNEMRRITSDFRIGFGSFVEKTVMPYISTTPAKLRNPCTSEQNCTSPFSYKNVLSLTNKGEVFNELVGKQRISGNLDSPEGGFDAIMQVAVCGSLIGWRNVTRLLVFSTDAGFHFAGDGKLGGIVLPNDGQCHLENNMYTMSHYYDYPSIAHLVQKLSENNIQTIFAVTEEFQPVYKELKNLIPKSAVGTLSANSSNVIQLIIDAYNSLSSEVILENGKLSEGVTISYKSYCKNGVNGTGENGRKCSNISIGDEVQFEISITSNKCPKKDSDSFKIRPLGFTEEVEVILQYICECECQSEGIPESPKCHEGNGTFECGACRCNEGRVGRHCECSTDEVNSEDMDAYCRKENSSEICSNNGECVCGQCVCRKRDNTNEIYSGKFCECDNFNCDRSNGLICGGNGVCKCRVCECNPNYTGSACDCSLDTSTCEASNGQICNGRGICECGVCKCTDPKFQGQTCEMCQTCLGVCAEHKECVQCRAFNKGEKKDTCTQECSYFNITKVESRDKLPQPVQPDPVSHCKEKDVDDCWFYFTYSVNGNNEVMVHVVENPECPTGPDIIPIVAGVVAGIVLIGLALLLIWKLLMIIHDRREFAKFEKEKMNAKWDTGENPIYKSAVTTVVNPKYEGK
As to B1, the “Percent Inhibition (K562 adhesion to FN9-10 peptide of fibronectin, 5 µg/ml)” value worked out at 2%.
On the same count and under the same terms, then B2, with -9%; and B8, with -4%.

The target in a further assay is T6, human αVβ6 integrin on cells (human, UniProt P06756 31-1048; P18564 22-788). In words: cell-based or functional assay.
B1: the “Estimated IC50, n = 1 (HT29 adhesion to TGFβLAP)” value is 0.029 µg/mL; the “Estimated IC50, n = 2 (HT29 adhesion to TGFβLAP)” value was 0.025 µg/mL; the “Estimated IC50, n = 3 (HT29 adhesion to TGFβLAP)” value was 0.033 µg/mL.
For B5, in that order: 4.07 µg/mL, 2.03 µg/mL and 3.26 µg/mL.
Consider B6, for which the “Estimated IC50, n = 1 (HT29 adhesion to TGFβLAP)” value was 1.46 µg/mL; the “Estimated IC50, n = 2 (HT29 adhesion to TGFβLAP)” value was 0.54 µg/mL; the “Estimated IC50, n = 3 (HT29 adhesion to TGFβLAP)” value is 0.72 µg/mL.
For the molecule B7, the “Estimated IC50, n = 1 (HT29 adhesion to TGFβLAP)” value was 2.41 µg/mL and the “Estimated IC50, n = 2 (HT29 adhesion to TGFβLAP)” value is 0.137 µg/mL.
Take B2: the “Estimated IC50, n = 1 (HT29 adhesion to TGFβLAP)” value is 0.063 µg/mL; the “Estimated IC50, n = 2 (HT29 adhesion to TGFβLAP)” value was 0.037 µg/mL; the “Estimated IC50, n = 3 (HT29 adhesion to TGFβLAP)” value is 0.037 µg/mL.

For a further assay, the target named is T4, human αV on parental A375M cells, which …. The experiment in a line: cell-based or functional assay.
As for B1, the “Percent Inhibition (A375M adhesion to osteopontin peptide, 5 µg/ml)” value was 9%.
The same measure, in the same setting: then B8, with 3%.

The target of a further assay is T5, α5β1 integrin (on K562 cells). In words: cell-based or functional assay. The source holds these as a separate data set.
As to B8, the “% Inhibition (K562 adhesion to fibronectin)” value was 3%.

The next assay has as its target T6, human αVβ6 integrin on cells. In words: cell-based or functional assay. This is another data set of the same source.
Consider B1, for which the “Assay 1 % Inhibition (HT29 adhesion to TGFβLAP)” value (from here on “Assay 1 % Inhibition”) was 98%, the “Assay 2 % Inhibition (HT29 adhesion to TGFβLAP)” value (shortened to “Assay 2 % Inhibition”) was found to be 102% and the “Average % Inhibition (HT29 adhesion to TGFβLAP)” value (“Average % Inhibition” below) was 100%.
On to B5, for which the “Assay 1 % Inhibition” value came out at 77%, the “Assay 2 % Inhibition” value came to 46% and the “Average % Inhibition” value amounted to 62%.
The corresponding values for B6 are 98%, 101% and 100%.
Take B7: the “Assay 1 % Inhibition” value was found to be 98%, the “Assay 2 % Inhibition” value turned out to be 106% and the “Average % Inhibition” value was 102%.
For B2, in that order: 98%, 106% and 102%.

Another assay shares this target. The experiment in a line: FMAT, HEK 293 cells overexpressing αVβ6, supernatant.
As for B1, the “FMAT Count” value came to 102, the “FMAT FL1” value turned out to be 2140 and the “FMAT FL1 × Count” value stood at 218000.
For B6, in that order: 28, 382 and 10700.
The corresponding values for B7 are 23, 725 and 16700.
On to B2, for which the “FMAT Count” value worked out at 174, the “FMAT FL1” value came to 9180 and the “FMAT FL1 × Count” value was 1.6e+06.

The Kd is the equilibrium constant for the complex coming apart. A high value points to lower affinity. A word on the koff: it is the rate constant with which the complex falls apart. Lower therefore signals a long-lived complex. For orientation: kon means the second-order rate constant of association.
